Experimental data as given in patent US12129490B2, “Methods for generating hepatocytes and cholangiocytes from pluripotent stem cells” (UNIVERSITY HEALTH NETWORK, priority 2018, dated 2024).

B1: TGFβ3: TGFbeta family member (protein, UniProt P10600 301-412, looked up)
Transforming growth factor …: ALDTNYCFRNLEENCCVRPLYIDFRQDLGWKWVHEPKGYYANFCSGPCPYLRSADTTHSTVLGLYNTLNPEASASPCCVPQDLEPLTILYYVGRTPKVEQLSNMVVKSCKCS
modifications: Transforming growth factor beta-3
notes: TGFbeta family member
B2: TGFβ2: TGFbeta family member (protein, UniProt P61812 303-414, looked up)
Transforming growth factor …: ALDAAYCFRNVQDNCCLRPLYIDFKRDLGWKWIHEPKGYNANFCAGACPYLWSSDTQHSRVLSLYNTINPEASASPCCVSQDLEPLTILYYIGKTPKIEQLSNMIVKSCKCS
modifications: Transforming growth factor beta-2
notes: TGFbeta family member
B3: EGF: Epidermal Growth factor (protein, UniProt P01133 23-1207, looked up)
Pro-epidermal growth factor: PQHWSCPEGTLAGNGNSTCVGPAPFLIFSHGNSIFRIDTEGTNYEQLVVDAGVSVIMDFHYNEKRIYWVDLERQLLQRVFLNGSRQERVCNIEKNVSGMAINWINEEVIWSNQQEGIITVTDMKGNNSHILLSALKYPANVAVDPVERFIFWSSEVAGSLYRADLDGVGVKALLETSEKITAVSLDVLDKRLFWIQYNREGSNSLICSCDYDGGSVHISKHPTQHNLFAMSLFGDRIFYSTWKMKTIWIANKHTGKDMVRINLHSSFVPLGELKVVHPLAQPKAEDDTWEPEQKLCKLRKGNCSSTVCGQDLQSHLCMCAEGYALSRDRKYCEDVNECAFWNHGCTLGCKNTPGSYYCTCPVGFVLLPDGKRCHQLVSCPRNVSECSHDCVLTSEGPLCFCPEGSVLERDGKTCSGCSSPDNGGCSQLCVPLSPVSWECDCFPGYDLQLDEKSCAASGPQPFLLFANSQDIRHMHFDGTDYGTLLSQQMGMVYALDHDPVENKIYFAHTALKWIERANMDGSQRERLIEEGVDVPEGLAVDWIGRRFYWTDRGKSLIGRSDLNGKRSKIITKENISQPRGIAVHPMAKRLFWTDTGINPRIESSSLQGLGRLVIASSDLIWPSGITIDFLTDKLYWCDAKQSVIEMANLDGSKRRRLTQNDVGHPFAVAVFEDYVWFSDWAMPSVMRVNKRTGKDRVRLQGSMLKPSSLVVVHPLAKPGADPCLYQNGGCEHICKKRLGTAWCSCREGFMKASDGKTCLALDGHQLLAGGEVDLKNQVTPLDILSKTRVSEDNITESQHMLVAEIMVSDQDDCAPVGCSMYARCISEGEDATCQCLKGFAGDGKLCSDIDECEMGVPVCPPASSKCINTEGGYVCRCSEGYQGDGIHCLDIDECQLGEHSCGENASCTNTEGGYTCMCAGRLSEPGLICPDSTPPPHLREDDHHYSVRNSDSECPLSHDGYCLHDGVCMYIEALDKYACNCVVGYIGERCQYRDLKWWELRHAGHGQQQKVIVVAVCVVVLVMLLLLSLWGAHYYRTQKLLSKNPKNPYEESSRDVRSRRPADTEDGMSSCPQPWFVVIKEHQDLKNGGQPVAGEDGQAADGSMQPTSWRQEPQLCGMGTEQGCWIPVSSDKGSCPQVMERSFHMPSYGTQTLEGGVEKPHSLLSANPLWQQRALDPPHQMELTQ
modifications: Pro-epidermal growth factor
B4: Wnt3A: wingless-type MMTV integration site family, member 3A factor, added to activin-induced EB cultures (protein, UniProt P56704 19-352, looked up)
Protein Wnt-3a: SYPIWWSLAVGPQYSSLGSQPILCASIPGLVPKQLRFCRNYVEIMPSVAEGIKIGIQECQHQFRGRRWNCTTVHDSLAIFGPVLDKATRESAFVHAIASAGVAFAVTRSCAEGTAAICGCSSRHQGSPGKGWKWGGCSEDIEFGGMVSREFADARENRPDARSAMNRHNNEAGRQAIASHMHLKCKCHGLSGSCEVKTCWWSQPDFRAIGDFLKDKYDSASEMVVEKHRESRGWVETLRPRYTYFKVPTERDLVYYEASPNFCEPNPETGSFGTRDRTCNVSSHGIDGCDLLCCGRGHNARAERRREKCRCVFHWCCYVSCQECTRVYDVHTCK

What was measured:
[1] = test system: hPSC-derived hepatoblast aggregates; assay: Growth factor addition to hepatoblast aggregates co-cultured on OP9 stroma; type: cell-based, human; details: for cholangiocyte branching: hepatoblasts co-cultured with OP9
Source text: To investigate the effect of Notch signaling on cholangiocyte development, we co-cultured the hepatoblast population (day 25) with OP9 stromal cells that are known to express different Notch ligands including Jagged-1^4,5. […] To overcome this problem, we generated 3D aggregates from the day 25 monolayer cells and cultured them on the OP9 stromal cells.

[2] = test system: hESC-derived embryoid bodies; assay: Endoderm induction in hESC-derived embryoid bodies, flow cytometry; type: cell-based, human; details: day six EBs
Description: Similar to protocols using monolayer cultures^16, it involves specific steps that recapitulate the critical stages of liver development in the early embryo. EBs are formed from small aggregates by culture for 24 hours in low levels of BMP4, as previously described^18. The EBs are subsequently exposed to high concentrations of activin A (hereafter referred to as activin) for five days to induce definitive endoderm, a population defined by expression of the surface markers CXCR4, CKIT and EPCAM and the transcription factors SOX17 and FOXA2.
Addition of Wnt3A to the activin-induced EB cultures led to reproducible increases in the proportion of CXCR4^+, SOX17^+ and FOXA2^+ cells within the EBs (FIG. 1c). With the increase in CXCR4 expression, the proportion of CKIT^+CXCR4^+ and CXCR4^+EPCAM^+ cells increased to greater than 95% of the population. […] Endoderm induction in the EBs was influenced by the base culture media used. StemPro34 supported more efficient endoderm induction than neural basal media that we used previously (FIG. 1f). The induction of highly enriched endoderm is an important first step in the efficient and reproducible generation of hepatocyte-like cells from hPSCs.
Media was changed every 3 days.
Flow cytometric analyses were performed as described previously^45. […] Stained cells were analyzed using an LSRII flow cytometer (BD).

Row | Molecule | cholangiocyte branching [1] | further results
1 | B1 | promote branching structures | –
2 | B2 | promote branching structures | –
3 | B3 | – | development of CK19+ clusters ([1]; OP9 co-culture): increase in the size
4 | B4 | – | proportion co-expressing CXCR4 and CKIT or CXCR4 and EPCAM [2]: greater than 95%
